Earlier results on one substance are cited in publication PMC4775371.

Broadly, the Kd is the free concentration of one partner at which half of the binding sites on the other are occupied at equilibrium, for simple one-to-one binding.

This data set has as its target H1.0 (UniProt P07305).
UniProt P07305, sequence (P07305 2-194): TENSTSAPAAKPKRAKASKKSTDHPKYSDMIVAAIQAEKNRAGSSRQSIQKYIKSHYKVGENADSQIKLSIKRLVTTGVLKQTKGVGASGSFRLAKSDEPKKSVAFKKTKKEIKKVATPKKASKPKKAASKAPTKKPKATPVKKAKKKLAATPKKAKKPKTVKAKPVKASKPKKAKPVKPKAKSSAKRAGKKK

For the substance FACT (from UniProt Q9Y5B9), the dissociation constant Kd is 0.032 µM.
